Laboratory results from the supplement of paper PMC10126150.
± gives the standard deviation of the averaged measurements.

Test system: ATP
Experiment: switch fluorescence ratio, 500 uM ATP over buffer (Cy3 cluster intensity, sum of 5 cycles each) (fold (ratio)); higher = stronger signal-on switching upon ATP binding; sequences stand for … in TCGTCGGCAGCGTCAGATGTGTATAAGAGACAGTTTTTTTTTTTTTTTTTTTTTTTTT…TC
Settings: aptamer strand: ATP DNA aptamer (quencher-CACCTGGGGGAGTATTGCGGAGGAAGG + anchor), 100 nM annealed; ATP concentration: 500 uM
Procedure, shortened: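 Clusters carrying Cy3-labelled switching strands on a modified Illumina MiSeq flow-cell were annealed to 100 nM quencher-labelled ATP aptamer and imaged in selection buffer. They were imaged again after 15 min with 500 uM ATP at 22 °C, over five buffer/ATP cycles with NaOH stripping and re-annealing in between. For each cluster, the fluorescence ratio is the summed Cy3 intensity of the target cycles divided by that of the buffer cycles, averaged per switch-domain sequence. Clusters outside 100-1000 RFU were left out.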
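Also: ATP exposure 15 min at 22 °C before imaging.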

Row | Sequence | switch fluorescence ratio
1 | GTTGTAGTTA | 1.01 ± 0.041
2 | AGCTATGCGC | 0.963 ± 0.056
3 | TCGATAGGGG | 0.98 ± 0.054
4 | AATGGCGGTA | 0.9928 ± 0.0082
5 | TAGTACTCGT | 1.01 ± 0.011
6 | ATGTTGTTTG | 0.979 ± 0.014
7 | GTTGAAAGTA | 0.977 ± 0.039
8 | ATGCACTGGA | 0.9969 ± 0.0075
9 | CGGTGACGCG | 0.982 ± 0.028
10 | CAGAGAGTTT | 0.9851 ± 0.0044
11 | TTAAATTTTT | 1.01 ± 0.041
12 | TTTATATGGT | 0.988 ± 0.028
13 | GGGAGGGCGG | 0.975 ± 0.051
14 | CCGGCGGGAG | 1.099 ± 0.0064
15 | CGGTTTTGTG | 0.962 ± 0.031
16 | CTCTGTACAG | 1.01 ± 0.018
17 | GAGGTTATAT | 0.992 ± 0.017
18 | AACCGGGATC | 1.14 ± 0.013
19 | ACACGTGGGC | 1.02 ± 0.029
20 | TTTCGTTCAT | 1.033 ± 0.0078
21 | GATGTGGGGC | 0.996 ± 0.029
22 | ATAATGCAGC | 0.988 ± 0.019
23 | TCTTAAGTGC | 1.07 ± 0.026

Row | Sequence | switch fluorescence ratio
24 | GGCTTGGGTG | 1.08 ± 0.032
25 | TGCAAGTACA | 1.41 ± 0.063
26 | AATAATTGGG | 0.9967 ± 0.0012
27 | TGAGTGATTT | 1.02 ± 0.031
28 | TGTTGTTATC | 0.974 ± 0.038
29 | CTGGGTTGGT | 0.972 ± 0.024
30 | TTCCGGGGCC | 0.9978 ± 0.0032
31 | GGGGAGTCGA | 1.03 ± 0.068
32 | GATCGCGTGG | 0.968 ± 0.012
33 | TGGGGAAAAA | 1.07 ± 0.11
34 | AACATTATGT | 1 ± 0.04
35 | TTATTATAGA | 0.998 ± 0.021
36 | GAGGCAATTT | 2.87 ± 0.68
37 | CGGTTTAGCG | 0.98 ± 0.029
38 | TTACGGTGTT | 1.1 ± 0.099
39 | TTTCAAAGTA | 0.9657 ± 0.0071
40 | ATTTTGAGGA | 1.02 ± 0.015
41 | TTTTCCACGG | 1.21 ± 0.16
42 | CGGGGGTGA | 1.014 ± 0.0059
43 | ATATTCTGAA | 0.976 ± 0.017
44 | TTGGGTGTGC | 1.02 ± 0.061
45 | AACATCGTAC | 1.12 ± 0.06
46 | ATAAGCATGT | 1.02 ± 0.034

Row | Sequence | switch fluorescence ratio
47 | TGTTGCAGTT | 1.03 ± 0.02
48 | TGGGTAAAGT | 0.971 ± 0.019
49 | AATGACGATG | 1.02 ± 0.029
50 | CGGAGCAGTG | 1.75 ± 0.055
51 | TGACGGGCGG | 1 ± 0.015
52 | CATGGGGTTG | 0.978 ± 0.02
53 | GTTCATGGTT | 1.01 ± 0.054
54 | AGACGGGTGG | 0.9763 ± 0.0052
55 | CCTGAGTTTG | 1.01 ± 0.035
56 | GAAAAAGGAG | 1 ± 0.018
57 | GGGGCTTTAA | 1.18 ± 0.35
58 | GATTTTCGTA | 0.985 ± 0.025
59 | ATGTTGTGCT | 0.984 ± 0.045
60 | CACGGGGAAC | 1.28 ± 0.32
61 | ATTTTAGTGC | 1.01 ± 0.053
62 | AAGTTCGTAA | 1.03 ± 0.0079
63 | TAACCTACCG | 1.41 ± 0.037
64 | AATTTGCCGT | 1.04 ± 0.042
65 | GGTTTGGGGT | 0.99 ± 0.032
66 | TTAGAGTGGA | 0.968 ± 0.024
67 | GGGACTAGTG | 1 ± 0.029
68 | CTGTGTGTTC | 1.01 ± 0.026
69 | TATCAATTCG | 0.997 ± 0.036

Row | Sequence | switch fluorescence ratio
70 | TACGATTGGA | 1.034 ± 0.0011
71 | GTGGTTGTGC | 0.97 ± 0.035
72 | CTGGAAAGGG | 0.96 ± 0.019
73 | GATAGGGTAA | 0.988 ± 0.039
74 | GACGGGTCTC | 1.001 ± 0.0098
75 | CTGCATAGGT | 1.31 ± 0.38
76 | CGCTATTCGG | 1.04 ± 0.043
77 | AATGGGCGTC | 0.9902 ± 0.0069
78 | CTAAGAAGCG | 1.1 ± 0.17
79 | CCGACATGGT | 1.27 ± 0.11
80 | AGACGGGGGG | 1 ± 0.039
81 | CGAGAAATTT | 1.01 ± 0.022
82 | ATTACCCGGA | 1 ± 0.028
83 | AGGATGGTGA | 0.968 ± 0.015
84 | TCAGGTGCGG | 1.16 ± 0.061
85 | TGGTACGGGG | 1.02 ± 0.033
86 | GCGGGAATGG | 1.02 ± 0.0037
87 | CCGGTTGCAT | 4.54 ± 1.9
88 | GGTGTGGGCG | 0.983 ± 0.079
89 | TAAAGTTTAG | 1.02 ± 0.015
90 | GCTGACAGCG | 0.959 ± 0.017
91 | CCCCGAGCCG | 1.02 ± 0.06
92 | AATGGGCGGA | 0.995 ± 0.017

Row | Sequence | switch fluorescence ratio
93 | AAATTTCGTT | 0.966 ± 0.016
94 | ATATCTGCTT | 0.978 ± 0.035
95 | ATCGGGGAGG | 1.01 ± 0.0081
96 | GAAAAACTGT | 1.06 ± 0.021
97 | ACTGGTGGCA | 1.04 ± 0.028
98 | GATGCTAGAT | 1.01 ± 0.026
99 | ATGAGGGGCT | 0.986 ± 0.037
100 | AAGGAATCGC | 1 ± 0.027
101 | GAGATTGTGA | 0.992 ± 0.039
102 | TATTTAAT | 1.07 ± 0.11
103 | TTGGGATGTT | 0.9904 ± 0.009
104 | TCCTGGGTGT | 2.23 ± 0.12
105 | GATTAAAACT | 1.07 ± 0.025
106 | TTTGGGGAAG | 1.01 ± 0.025
107 | AATGGTGGGG | 0.9912 ± 0.0053
108 | AGATAGAGTT | 0.997 ± 0.021
109 | TCTTTTTTTT | 1 ± 0.041
110 | AGGGTTATTC | 1 ± 0.013
111 | TTAGTAGCTA | 1.01 ± 0.013
112 | TTAGCAAAAA | 1.1 ± 0.075
113 | GATGTGTAGA | 0.999 ± 0.018
114 | TAGCCAAGTC | 1.02 ± 0.01
115 | CGGTTGTTTT | 1.023 ± 0.0065

Row | Sequence | switch fluorescence ratio
116 | AAATCTAGAC | 0.998 ± 0.011
117 | GTTCCGGCTG | 1.02 ± 0.023
118 | GTAAGGGAAA | 1.02 ± 0.051
119 | CGAAGTTTGT | 0.98 ± 0.01
120 | TAGTGGTTCG | 1.02 ± 0.023
121 | TTTGTTCGGT | 1.01 ± 0.013
122 | GGCGTGTTGG | 1.02 ± 0.045
123 | CATTTTTCTG | 0.963 ± 0.06
124 | GGGTATGAGC | 0.969 ± 0.04
125 | TATTCGGAGC | 1.01 ± 0.037
126 | GTTTATTGTC | 1.04 ± 0.037
127 | GAAGGGTAAC | 1.03 ± 0.018
128 | CGGTCACTG | 1.002 ± 0.0069
129 | AAAGTGGGCG | 1.13 ± 0.18
130 | AAATGATTGG | 0.982 ± 0.019
131 | GTTAAATTAG | 0.9875 ± 0.0056
132 | GACGCCTAGT | 1.036 ± 0.0021
133 | CAAAGATAGT | 0.996 ± 0.037
134 | TTATTGGTAA | 1.0091 ± 0.00034
135 | GACTTTTTGT | 0.994 ± 0.011
136 | TGAGGGGGAT | 1 ± 0.051
137 | AAAGGGGTAT | 1.03 ± 0.027
138 | GAGGGCACTT | 0.978 ± 0.043

Row | Sequence | switch fluorescence ratio
139 | TCTTAAAATT | 1.012 ± 0.0091
140 | TCGAGAATGT | 0.984 ± 0.014
141 | AGAGCTCTTT | 1 ± 0.029
142 | GTGGGGACGG | 0.977 ± 0.053
143 | TATTATTGGG | 1 ± 0.0054
144 | GCGTTATATT | 1 ± 0.018
145 | ATCAATGAAC | 1.05 ± 0.018
146 | CAGGCAGATG | 1.01 ± 0.015
147 | TGGTCTATTT | 0.965 ± 0.019
148 | ATAACCGTAC | 2.46 ± 0.27
149 | ATTAGGGGCC | 0.976 ± 0.018
150 | AAAGTCTGAT | 0.959 ± 0.027
151 | TTTGTACAAC | 1.01 ± 0.05
152 | GAGTACTGAG | 1.163 ± 0.0012
153 | GGTTATGCGG | 1.01 ± 0.046
154 | GACGGGGGTG | 1.01 ± 0.023
155 | ATGGGGGGAG | 0.997 ± 0.025
156 | TCGGGGGTGC | 1.04 ± 0.033
157 | TCGTCCGGTA | 1.29 ± 0.04
